Measurements from the nanobody polyreactivity screen of Harvey et al. (2022).

Assay: yeast display, Sf9 membrane polyspecificity reagent, FACS + sequencing; frameworks hold sequencing errors
Outline: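 Galactose induction of a Saccharomyces cerevisiae BJ5465 synthetic nanobody display library ran 36–48 hours. The cells were then stained for 1 hour at 4 °C with 10% biotinylated, detergent-solubilized Sf9 membrane reagent, pulled down on streptavidin microbeads and FACS-sorted into low and high (top ~1%) gates on expression and reagent-binding fluorescence. Labels for polyreactivity follow the gate of origin.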

Row | Sequence | polyreactivity (PSR sort gate)
1 | HVQLVESGGGLVQAGGSLRLRCAASGFTIRSYVMGWYRQAPGKERELVAAIRRSGGSTYYADSVKGRFTISRDNAKNTVYLQMNSLKPEDTAVYYCNTVSGYGQPRGDYWGQGTQVTVSS | high polyreactivity
2 | QVQLVESGGGLVQAGGSLRLSCAASGRIFSRYAMGGYRQAPGKERELVAAIRYSGGRTYYADSVKGRFTISRDNAKNTVYLQMNSLIPEDTEVYYCAADGQWYYAPFRGGDYENDYWGQGTQVTVSS | low polyreactivity
3 | QVQLVESGGALVQAGASLRLSCAASGFTFWDYAMGWYRQAPGKERELVAAISDNDGSTDYADSVKGRFTISRDIAKNSVYLQMNSLKPEDTAVYSCNAEIELPSKVGDYWGQGTLVTVSS | low polyreactivity
4 | QVQLVESGGGLFHAGGSLRLSCAASGSTFSRNAMGWYIPAPGKEREFVAAISWSGSSTYYADSVKGRFTISRDNAKNTVYLQMNSLKPEDTAVYYCAARSYYDGFYYWGQGTQVTVSS | high polyreactivity
5 | QVQLVDSGGGLVQAGGSLRLICAASGRNLYAYSMGWYRQAPWQQRELVGAITSGASTYYADSVKGRFTISRDNAKTNVYLQMKRLKPEDTAVYYCAKSVRYYKPGYDYWGQGTQVTVSS | low polyreactivity
6 | QVQLQGSGGGLVQAGGSLRLSCAASGNIFDADIKGWYRQAPGKEIELVASITDGGSTNYADSVKGRFTISRDNAKNTVYLQMYSLKHEDTAVYYCAAIAYPDIPTYFDYDSDCFYWSQGTQVTVSS | high polyreactivity
7 | QVQHVESGGGLVQAGGSLRLSGAASGSTFPTIAMGWNRQAPGKEREWVADITIRAGGTSYADSVKGRFTISRDNAKNSVYLQMNSLKPQDTAVFYCARSKSSELKRLLYDSWGEGTQVTVSS | low polyreactivity
8 | QVQLVESGGGLVQAGGSLRLSCAASGFIFTPYAMGWYRQAPGKERELVAAITWRGARTYYADSVKGRFTISRDNAKNTVYLQMNSLKPEDTAVYYCATTFTGYNKEFGYWGQGTQVTVSS | high polyreactivity
9 | QVQLVESGGGLVQAGGSLRLSCAASGFTFKDYAMGWYRQAPGKERELVAANSRSGGSTYYADSVKGRFTNSRDSAKNTVYLQMNSLKPEDTAVYYCAAAYVRYRDPYGYWGQGTQVTVSS | high polyreactivity
10 | QVQHVESGGGLVQAGGSLRLSCAASGFIFLYYAMGWYRQAHGQERELVAAISRSGGRTYYADSVKGRFTISRDTAKNTVYLQMNSLKPEDTAVYYCAADRLGSISGYDYWGQGTQVTVSS | high polyreactivity
11 | QVQLQESGGGMVQAGGSLLSCAASGTISYYREMGWYRQAPGKERELVAGIGVGTITYYADSVKGRFTIIRDNAKNTVYLQMNSLKPEDTAVYYCAAHIDGNDYHAYWGQGTQVTVSS | low polyreactivity
12 | QVQLVESGGGLVQAGGSLRLSCAASGRTFGYYAMGWYRQAPGKERELVATITWSGGSTYYADSVKGRFTISRDNAKNTVYLQMNSLKPEDTAVYYCATDALYTYGYDYWGQGTQVTVSS | low polyreactivity
13 | QVQHVESGGGLVQAGGSLRLSCAASGLIYSYYTMGWYRQAPGKERDLVAAITGSGGTTYYADSVKGRFTISRDNAKNTVYIQMNSLKPEDTAVYYCATPPPEVWQRWYREYDYWGQGTQVTVSS | low polyreactivity
14 | QVQLVESGGGLVQAGGSLRLSCAASGLIFDINAMGWYRQAPGKERDLVAAISFSDGITYYADSVKGRFTISRDNAKNTVYLHMNSLKPEDTAVYYCAVDYRIYRSGPMDYWGQGTQVTVSS | high polyreactivity
15 | QVQLVESGGGLVQAGGSLRLSCAASGRTFGHNAMGWYRQAPGKEREFVAAITYSGVRTFYADSVKGRFTISRDNAKNTVYLQMNSLKPEDTAVFYCAAYYPSQDYSGFWSDTYEYWGQGTQVTVSS | low polyreactivity
16 | QVQLVESGGGLVQAGGSLRLSCAASGRIIQRNTMGWYRQAPGKERELVAAISGSTGRTYYADSVKGRFTISRDNAKNTVYLQMNSLKPEDTAVYYCNTVGRSSSLSVFLIGYGYWGQGTQVTVSS | high polyreactivity
17 | QVQLVESGGGIVQAGGSLRLSCDASGNTFKGYAMGWYRQAPGTESELVAAISWSGSSTYYADSLKGRFTISRDNAKNTVYFQLNSLKQEDPAVFSCNRKYLGRYASVYGYGYWGQGTQVTVSS | high polyreactivity
18 | QVQLVESGGGLVQAGGSLRLSCAASGRIFYRYARGWYRQAPGKERELVAAITRGGRTNYADSVKGRFTISRDNAQNTVYLQMNSLKPEDTAVYYCRPLWYGFDYWGQGTQVTVSS | high polyreactivity
19 | QVQLVESGGRLVQAGGSLRLSSAASGRTFRTYALGWYRQAPGTEREFVAAISRRSGITYYADSVKGRFTISRDNAKNTVYLQMNSLKPEDTAVYYCAATGYTGYSRYYYWGQGTQVTVSS | high polyreactivity
20 | QVQLVESGGGLDQAGGSLRLSCAASGRIFYQNAMGLSRQAPGKERELVAAITSSGVSTYYADSVKGRFTISRDNAKNTVYLQMNSLKPEDTAVYYCAAYRVGYGGYSYYYWGQGTQVTVSS | high polyreactivity
21 | QVQLVESGGGLVQAGGSLRLSCAASGFTFYPYAMGWYRQAPGKERELVASFTSAGGTNYADSVKGRFTISRDNAKNTVYLQMNSLKPEDTAVYYCAAKYRSRGPDYYFKSDYWGQGTQVTVSS | low polyreactivity
22 | QVQLVESGGGLVQAGGSLRLSCAASGIIITYYTMGWYRQAPGKERELVAAIRWRGGSTYYADSVKGRFTISRDNAKNTVYLQMNSLKPEDTAVYYCNARSAFRSCGRDFLFDYWGQGTQVTGSS | high polyreactivity

Row | Sequence | polyreactivity (PSR sort gate)
23 | QVQLVESGGGLVQAGGSLRLSCAASGSIFVANAMGWYRQAPVKERELVAAISRRGGSTYYADSVKGRFTISRDNAKNTVYLQMNSLKPEDTAVYYCAAEDVYEYDYWGQGTQVTVSS | high polyreactivity
24 | QVQLVESGGGLVQAGGSLRLSCAASGRTFSSYTMGWYRQAPGKERELVASITNNGGSTYYADSVKGRFTISRDNEKNTVYLQMNSLKPEDTAGYYCNANSRVGLQDKKPRDYDGYDSWGQGTQVTVSS | low polyreactivity
25 | QVQLVESGGGLVQAGGSLRLSCAASGMIFQDNAMGWYSQAPGKERELVAAITTGGITYYADSVKGRFTISRDNAKNTVYLQMNSLKPEDTAVYYCATDPVKSGYQRYYYWGQGTQVTVSS | low polyreactivity
26 | QVQLVESVGGLDQAGGSLRLTCAASVSIFRNYAMGWYRQAPGKERELVASIRYSGGRTNYADSVKGRFTISRDNAKNTVYVPMNSLTPEDTAVYYCAAATHYWYFYSFKDKSGFRGYYWGQGTHVTVSS | high polyreactivity
27 | QVQLVESGGGLVQAGGSLRLSCAASGLTFWGNAMGWYRQAPGKEREFVAGIDRSSVSTYADSVKGRFTISRDNAKNTVYLQMNSLKPEDTAVYYCAVDEYGIWVGWVPYATFGMNYWGQGTQVTVSS | high polyreactivity
28 | QVQLVESGGGLVQAGGSLRLSCAASGSIFYWYAMGWYRQAPGKERELVAAITYSGDRTYYADSVKGRFTISRDNAKNTVYLQMNSLKPEDTAVYYCAKDRGSGPLDYWGQGTQVTVSS | low polyreactivity
29 | QVQLVESGGGLVQAGGSLRLICAASGLIFWRNAMGWYRQAPGKERELVAAISRTGGNTYYADSVKGRFTISRDNAKNTVYLQMNSLKPEDTAVYYCAKDVGKGYGAYPLDYWGQGTQVTVSS | low polyreactivity
30 | QVQLVESGGGLVQAGGSLRLSCAASGRTFPSNAMGWYRQAPGKEREFVASITYSGGRTYYADSVKGRFTISRDNAKNTVYLQMNSLKPEDTAVYYCATARYRYHYYSWGQGTQVTVSS | high polyreactivity
31 | QVQLVESGGGLVQAGGSLRLSCAASGRIFRYYAMGWYRQAPGKERELVAAITRGGSTNYADSVKGRFTISRDNAKNTVYLQMNSLKPEDSAVFYCATRESCYPRWMDYWGQGTQVTVSS | high polyreactivity
32 | QVQLVESGGGLVQAGGSLRISCAASGSTFRRYPIGWYRQAPGKEREFVAVITSSGVITYYADSVKGRFTISRDNAKNTVYLQMNSLKPEDTAVYYCATDARSMDYWGQGTQVTVSS | low polyreactivity
33 | QVQLLESGGGLVQAGGSLRLSCAASGSTYSRYDMGWYRPAPGKERELVAAISRSGGSTYYADSVKGRFTISRDNAKNTVYLQMNSLKPEDTAGYYCAAYLPYRQGRYGYEYWGQGTQVNVSS | high polyreactivity
34 | QVQLLESGGGLVQAGGRLRLSCAPSGRSIRYYTMGWYRQAPGKERELVAAISRSGDSTYYADSVKGRFTISRDNEKNTVYVQLKCLIPVDTAVYYCAASLVYQFCYDYWGQGTQVSVSS | high polyreactivity
35 | QGQLVESGGGLVQAGGSLRLSCAASGRIFYTNAMGGYRQARGKERELVAGINYSGGNTYADSVKGRFTISRDNAKNTVYLQMNSLKPEDTAVYYCAARGWSHYGYGDNYRHGYWGQGTQVTVSS | high polyreactivity
36 | QVQLVESGGGLVQAGGSLRLSCAASGSIFWGYDMGWYRQAPGKERELVASISYSGGSTSYADSVKGRFTISRDNAKNTVYLQMNSLKPEDTAVYYCAADEGGFWWTYPYDSWGQGTQVTVSS | low polyreactivity
37 | QVQLVESGGGLVQAGGSLRLSCAASGFIILINVMGWYRQAPGKERELVAVITGGGTTNYADSVKGRFTFSRDNAKNTVYLQMNSLKPEDTAVYYCAVDAGAGDNDYWGQGTQVTVSS | low polyreactivity
38 | QVQLVESGGGLVQAGGSLRLSCAASGRIFWINAMGWYRQAPGKERELVAAISSGGGTHYADSVKGRFTISRDNAKNTVYLQMNSLKPEDTAVSYCARRYQRKKPVFPHYQGAYDYWGQGTQVTVSS | low polyreactivity
39 | QVQLVESGGGLVQAGGSLRLSCAASAFIFSRNAMGWYRQAPGKDRELVAAISLRGGSTSYADSVKGRFTISRDTAKNTVYIQMNSLKPEDTAVYYCAKYDRNTYGYWGQGTEVTVSS | low polyreactivity
40 | QVQLVESGGCLVHAGGSHRLRCAASGSTFSRYAMGWYRHAPGKERELVAAISSSGGSTYYADSVKGRFTISRDNAKNTVYLQMNSLKPEDTAVYYCAARIWRTRRYDYWGQGTQVTVSS | high polyreactivity
41 | QVQLVESGGGLVQAGGSLRLSCAASGGIFLSNAMGWSRQAPGKERELVAAISRSGGSTYYADSVKGRFTISRDNAKNTVYLQMNSLKPEDTAVYYCAARWTRNYGMNYWGQGTKVTVSS | high polyreactivity
42 | QVQLVESGGGLVQAGGSLRLSCAASGIFGWYAMGWYRQAPGKEREFVATINWSGGRTYYADSVKGRFTISRDNAKNTVYLQMNSLKPEDTAVYYCAAENYASEYDYWGQGTQVTVSS | low polyreactivity
43 | QVQLVESGGGLVQAGGSLRLICAASGRIFGIYAMGWYRQAPGKERELVASITGSSGSTNYADSVKGRFTISRDNAKNTVYLQMNSLKPEDTAVYYCAAERGYHGGGSGLYDYWGQGTQVTVSS | low polyreactivity
